Here are results for 1 molecule from publication PMC10633859.

Data set [1] concerns the target SIRT6 full length (SIRT6FL) (human, UniProt Q8N6T7 1-355). The data set is described as follows: EMSA. On the technique in general: Mobility shift assays separate free from complexed probe on a gel.
The target in data set [2] is SIRT6(1-300) (human, UniProt Q8N6T7 1-300). The data set is described as follows: EMSA.
Sequence of SIRT6(1-300) (Q8N6T7 1-300): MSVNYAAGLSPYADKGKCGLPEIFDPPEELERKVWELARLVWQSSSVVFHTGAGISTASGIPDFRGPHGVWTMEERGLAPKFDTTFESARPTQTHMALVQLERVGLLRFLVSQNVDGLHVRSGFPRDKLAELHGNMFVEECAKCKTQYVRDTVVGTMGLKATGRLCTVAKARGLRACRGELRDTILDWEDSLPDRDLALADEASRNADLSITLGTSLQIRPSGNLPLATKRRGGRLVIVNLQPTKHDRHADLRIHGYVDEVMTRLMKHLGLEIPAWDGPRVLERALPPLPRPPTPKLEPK

Sequence of SIRT6 full length (SIRT6FL) (Q8N6T7 whole entry): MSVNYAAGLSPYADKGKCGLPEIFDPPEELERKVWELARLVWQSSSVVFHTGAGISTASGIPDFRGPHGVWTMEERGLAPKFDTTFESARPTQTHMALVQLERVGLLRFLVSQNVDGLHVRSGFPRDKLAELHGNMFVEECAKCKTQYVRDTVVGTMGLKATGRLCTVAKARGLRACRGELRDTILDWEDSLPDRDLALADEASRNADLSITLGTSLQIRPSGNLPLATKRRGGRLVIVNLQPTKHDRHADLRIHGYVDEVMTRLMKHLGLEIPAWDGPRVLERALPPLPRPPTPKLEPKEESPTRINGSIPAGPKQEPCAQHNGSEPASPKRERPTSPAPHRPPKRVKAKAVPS

B1: fluorescent dsDNA 47 bp (dsDNA)
DNA 1: CAGATCTACCGAATCAGTCCGACGACGCATCTGCACTACGAGGATAC
DNA 2: GTATCCTCGTAGTGCAGATGCGTCGTCGGACTGATTCGGTAGATCTG
In the case of B1, the Kd is 1.93 ± 0.1 µM in data set [1] and 9.68 ± 0.39 µM in data set [2].

In general, Kd refers to the free concentration of one partner at which half of the binding sites on the other are occupied at equilibrium, for simple one-to-one binding. Read a high Kd as weaker binding.
